Experimental data: patent US5783421

Key:
Factor Xa [1] = experiment: modified prothrombinase complex assay (50 pM FXa, 1.35 µM prothrombin)
Factor Xa [2] = target: Factor Xa
Factor Xa [3] = experiment: inhibition of FXa in the prothrombinase complex assay (250 pM FXa, 2.67 µM prothrombin)

Ki (Factor Xa [1]): 0.12 nM | IC50, generation of thrombin from prothrombin by FXa in a prothrombinase complex (Factor Xa [2]): 0.19 nM | Ki (Factor Xa [3]): 0.072 nM
Substance: naturally occurring FXa inhibitor isolated from dilute leech saliva (DLS) of Hirudo medicinalis
